One molecule from patent EP3271384B1 (dated 2023) can be followed below.

The target in this assay is T1, telomerase (hTERT) peptide on HLA-A*02:01 (human).
T1 peptide: RLVDDFLLV
The experiment in a line: multimer staining.

B1: TCR specific for the HLA-A2/hTERT865-873 complex (α5 and β3 chains, SEQ. ID. no. 1 and 2) (TCR, V domains shown)
Valpha: GEQVEQRPPHLSVREGDSAVIICTYTDPNSYYFFWYKQEPGAGLQLLMKVFSSTEINEGQGFTVLLNKKDKQLSLNLTAAHPGDSAVYFCAVRHDSGYNKLTFGKGTVLLVSP
Vbeta: NSKVIQTPRYLVKGQGQKAKMRCIPEKGHPVVFWYQQNKNNEFKFLINFQNQEVLQQIDMTEKRFSAECPSNSPCSLEIQSSEAGDSALYLCASSLSKGGFYEQYFGPGTRLTVL
Regarding B1, the binding result was “recognises”.
